Measured values reported in patent US10188739B2 (Xenetic Biosciences, Inc., priority 2014, dated 2019).
Read-outs that look alike come from different tables or passages of the source.

How the values were obtained:
[1] = design: species or system CD-1 mice; details: mouse, in vivo
Protocol: (§1) Male CD-1 mice of 8 to 9 weeks of age (18-20 g body weight) were acclimatized for 7 days before being enrolled into the study. Mice were weighed and dosed at 5 μL of dosing material per 20 g of body weight. […] Animals were anesthetized and held with the dorsal end facing down. Dosing materials were administered at a rate of ˜1 μL/10 seconds split equally through both nostrils. Total dosing time ranged from 1.8 to 2.3 minutes. After a nominal 10 minutes post-dose, animals were sacrificed followed by blood collection, perfusion, and tissue collection. The olfactory bulbs were included in the collection of the brain tissues. All tissues were stored at nominal −80° C. until assay. Perfusate contains: 1×PBS pH 7.4, +2.7% w/v BSA+100 U/mL heparin. […] Read plate at Ex/Em 635/675.

[2] = design: species or system CD-1 mice; details: mouse, in vivo, 10.5 mg/kg
Protocol: as §1, with “heparin. Lung/Liver/Kidney/Spleen. […] To evaluate recovery and matrix differences between the calibration matrices and study test samples, a spiking recovery experiment was performed (Table 2). […] The RFU correction factor was determined by dividing the response of each analyte spiked into BALB-c lysates (preparation procedures described below) by the response of each analyte spiked into CD-1 homogenate and then extracted. For kidney and liver matrices, there was enough material available to evaluate spiking recovery at two different levels.” for “heparin.”, “635/675 4. […]” for “635/675.”

**Q.** Which “Plasma % Dose” value ([1]; 2.1 mg/kg) does the source give for “Sialong: polysialyated insulin conjugate by N-terminal (B-chain) aldehyde conjugation using 15 kDa CAO; tested labelled with AF-647 (Sialong^AF647)” here?
**A.** Its value is 0.0 % Dose.

**Q.** And the “Plasma % Dose” value ([1]; 10.5 mg/kg)?
**A.** Its value is 0.01 % Dose.

**Q.** What about the “Lung % Dose” value [2] of the same substance?
**A.** Its value is 0.01 % Dose.
